Where two headings read alike, the source gives them in different places.

The target of assay [1] is T1, purified human complement component C8 (human, UniProt P07357).
The target in assay [2] is T2, purified human complement component C9 (human, UniProt P02748).
For assay [3], the target named is T1, purified human complement component C8. The experiment in a line: cell-based or functional assay.
In assay [4] the target is T2, purified human complement component C9. The experiment in a line: cell-based or functional assay.

Consider “CD59-MCP TMTCIP (transmembrane form of CD59)”, for which the percent dye release (Calcein AM) after complement attack, Balb/3T3 cells in assay [1] and in assay [2] was 3 fold each time.

B1: native human CD59, GPI-anchored (other)
chain: LQCYNCPNPTADCKTAVNCSSDFDACLITKAGLQVYNKCWKFEHCNFNDVTTRLRENELTYYCCKKDLCNFNEQLENGGTSLSEKTVLLLVTPFLAAAWSLHP
modifications: glycosyl-phosphatidylinositol (GPI) anchor at the carboxyl terminus
In the case of B1, the “percent dye release (Calcein AM) after complement attack, Balb/3T3 cells” value in assay [3] and in assay [4] was roughly 3 fold each time.

The record behind these values is US5847082, “Terminal complement inhibitor fusion proteins” (Alexion Pharmaceuticals, Inc., dated 1998).
